Experimental data published in patent US20250353900A1 (HUMABS BIOMED, published 2025).

Tests used:
[1] = target: T1, Human complement component C1q (human, UniProt P02745 23-245; P02746 28-253; P02747 29-245); test: BLI (Octet), IgG captured on anti-human Fab (CH1) sensors
T1 construct: also called human complement protein C1q

[2] = target: T2, Recombinant human FcγRIIa (H131) (human, UniProt P12318 34-218); test: BLI (Octet), His-tagged FcγR on anti-penta-His sensors, mAb cross-linked with anti-F(ab')2
T2 construct: also called FcγRIIa allele H131
T2 sequence (looked up): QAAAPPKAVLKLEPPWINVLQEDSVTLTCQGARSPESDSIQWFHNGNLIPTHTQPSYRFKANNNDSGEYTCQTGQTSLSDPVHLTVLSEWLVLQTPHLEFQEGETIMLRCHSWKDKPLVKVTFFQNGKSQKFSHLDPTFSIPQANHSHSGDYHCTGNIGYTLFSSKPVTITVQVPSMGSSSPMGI

[3] = target: T3, Recombinant human FcγRIIIa (V158) (human, UniProt P08637 17-208); test: as above
T3 construct: also called FcγRIIIa allele V158

[4] = target: T4, Recombinant human FcγRIIIa (F158) (human, UniProt P08637 17-208); test: as above
T4 construct: also called FcγRIIIa allele F158; FcγRIIAa allele F158

[5] = target: HBV HBsAg of genotype A on engineered hepatitis D virus (hepatitis B virus genotype A); test: cell-based or functional assay
[6] = target: HBV HBsAg of genotype C on engineered hepatitis D virus (hepatitis B virus genotype C); test: cell-based or functional assay

T1 sequence (P02745 23-245 limits assumed, chain 1 of 3): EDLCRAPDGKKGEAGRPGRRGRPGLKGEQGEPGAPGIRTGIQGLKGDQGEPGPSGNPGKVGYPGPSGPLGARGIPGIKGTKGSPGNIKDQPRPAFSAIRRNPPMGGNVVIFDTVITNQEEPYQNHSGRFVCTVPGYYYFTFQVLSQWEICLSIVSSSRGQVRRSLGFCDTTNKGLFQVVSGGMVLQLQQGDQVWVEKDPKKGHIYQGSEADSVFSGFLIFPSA
T1 sequence (P02746 28-253 limits assumed, chain 2 of 3): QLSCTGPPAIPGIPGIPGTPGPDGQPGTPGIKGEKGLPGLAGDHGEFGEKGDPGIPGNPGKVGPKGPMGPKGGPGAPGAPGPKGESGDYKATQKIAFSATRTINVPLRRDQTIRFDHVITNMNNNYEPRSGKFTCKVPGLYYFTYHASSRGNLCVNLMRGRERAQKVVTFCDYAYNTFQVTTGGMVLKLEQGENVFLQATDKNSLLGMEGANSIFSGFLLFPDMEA
T1 sequence (P02747 29-245 limits assumed, chain 3 of 3): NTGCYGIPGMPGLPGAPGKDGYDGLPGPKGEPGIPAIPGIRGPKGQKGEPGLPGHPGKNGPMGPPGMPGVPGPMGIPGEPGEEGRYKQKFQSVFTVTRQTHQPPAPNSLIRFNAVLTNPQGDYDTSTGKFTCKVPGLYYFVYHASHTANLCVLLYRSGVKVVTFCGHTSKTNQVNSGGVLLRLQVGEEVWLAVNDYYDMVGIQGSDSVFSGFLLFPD
T4 sequence (P08637 17-208 limits assumed): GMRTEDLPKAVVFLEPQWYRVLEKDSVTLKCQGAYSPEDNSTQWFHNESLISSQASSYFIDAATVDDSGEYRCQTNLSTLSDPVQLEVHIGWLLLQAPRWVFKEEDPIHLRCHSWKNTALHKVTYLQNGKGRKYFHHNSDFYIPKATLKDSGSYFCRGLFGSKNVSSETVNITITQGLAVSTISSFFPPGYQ
T3 sequence (P08637 17-208 F176V limits assumed): as the sequence (P08637 17-208 limits assumed) above, with F160V counted along it

B1: HBC34-V35-MLNS-GAALIE (antibody, human IgG1, lambda)
heavy: ELQLVESGGGWVQPGGSQRLSCAASGRIFRSFYMSWVRQAPGKGLEWVATINQDGSEKLYVDSVKGRFTISRDNAKNSLFLQMNNLRVEDTAVYYCAAWSGNSGGMDVWGQGTTVSVSSASTKGPSVFPLAPSSKSTSGGTAALGCLVKDYFPEPVTVSWNSGALTSGVHTFPAVLQSSGLYSLSSVVTVPSSSLGTQTYICNVNHKPSNTKVDKKVEPKSCDKTHTCPPCPAPELLAGPSVFLFPPKPKDTLMISRTPEVTCVVVDVSHEDPEVKFNWYVDGVEVHNAKTKPREEQYNSTYRVVSVLTVLHQDWLNGKEYKCKVSNKALPLPEEKTISKAKGQPREPQVYTLPPSRDELTKNQVSLTCLVKGFYPSDIAVEWESNGQPENNYKTTPPVLDSDGSFFLYSKLTVDKSRWQQGNVFSCSVLHEALHSHYTQKSLSLSPGK
light: SYELTQPPSVSVSPGQTVSIPCSGDKLGNKNVAWFQHKPGQSPVLVIYEVKYRPSGIPERFSGSNSGNTATLTISGTQAMDEAAYFCQTFDSTTVVFGGGTRLTVLGQPKAAPSVTLFPPSSEELQANKATLVCLISDFYPGAVTVAWKADSSPVKAGVETTTPSKQSNNKYAASSYLSLTPEQWKSHRSYSCQVTHEGSTVEKTVAPTECS
B1: no binding (tested: 3 µg/ml of purified human C1q) [1]; binds [2]; binds [3]. For the same binder, the binding result [4] was “binds”, the “neutralization EC50, HDV engineered to express HBV HBsAg” value [5] was 2.34 ng/mL and the “neutralization EC50, HDV engineered to express HBV HBsAg” value [6] was 0.92 ng/mL.
